Measurements taken from patent US20230193226A1, “BUTYRYLCHOLI[…] AN ENHANCED ABILITY TO HYDROLYZE ACYL GHRELIN” (priority 2014, published 2023).

Legend:
[1] = target: T1, BChE (Mus musculus, UniProt Q03311, A228S/A357W/S256A/S316G/Y361G); assay: Selective BChE inhibition by iso-OMPA in vector-treated mice; type: in vivo; conditions: AAV-mBChE mut mice, iso-OMPA 40 mg kg^-1, 6 hours fast
T1 construct: expressed in transfected cells; host or cells: C57bl/6 mice after AAV-mBChE mut gene transfer; activity measured in serum/plasma
Procedure: FIGS. 6A-6B. […] All mice were then fasted for 6 hours, and serum samples were collected to determine (6A) BChE activity versus the reference substrate (BTCh) and (6B) the levels of acyl ghrelin.

[2] = system: human acyl-ghrelin; assay: Deacylation of human acyl ghrelin by purified human BChE; type: biochemical
Procedure: FIGS. 3A-3D. […] (3B) One ng of human acyl-ghrelin was treated with different amount of human BChE. After 20 hours of incubation, residual acyl ghrelin and desacyl ghrelin in each reaction were determined. (3C) One ng of human acyl ghrelin was treated with 10 µg of human BChE and % decrease in residual acyl ghrelin was measured as a function of time. […] The hydrolysis activities with butyrylthiocholine (BTCh) or acyl-ghrelin as substrates were determined by Ellman assay and acyl-ghrelin immunoassay, respectively. Data are normalized to the no inhibitor controls. All values are means ± SD, each with duplicate samples (n=3).
A sample of purified human BChE was obtained from Dr. O. Lockridge and assessed by gel electrophoresis (FIG. 3A).

[3] = system: human ghrelin; assay: In vitro enzyme screening: ghrelin hydrolyzing activity of purified mutant BChE (ghrelin immunoassay); type: biochemical; conditions: purified enzyme from HEK293 supernatant
[4] = 1 ng human acyl-ghrelin, increasing amounts of human BChE, 20 hours

## CC(C)NP(=O)(NC(C)C)OP(=O)(NC(C)C)NC(C)C [iso-OMPA]
[1]
  BTCh hydrolysis activity of plasma: abolished
  level of acyl ghrelin in plasma: equivalent to the level observed in AAV-Luc-treated control mice

B1: human BChE (protein, listed as Homo sapiens)
chain: MHSKVTIICIRFLFWFLLLCMLIGKSHTEDDIIIATKNGKVRGMNLTVFGGTVTAFLGIPYAQPPLGRLRFKKPQSLTKWSDIWNATKYANSCCQNIDQSFPGFHGSEMWNPNTDLSEDCLYLNVWIPAPKPKNATVLIWIYGGGFQTGTSSLHVYDGKFLARVERVIVVSMNYRVGALGFLALPGNPEAPGNMGLFDQQLALQWVQKNIAAFGGNPKSVTLFGESAGAASVSLHLLSPGSHSLFTRAILQSGSFNAPWAVTSLYEARNRTLNLAKLTGCSRENETEIIKCLRNKDPQEILLNEAFVVPYGTPLSVNFGPTVDGDFLTDMPDILLELGQFKKTQILVGVNKDEGTAFLVYGAPGFSKDNNSIITRKEFQEGLKIFFPGVSEFGKESILFHYTDWVDDQRPENYREALGDVVGDYNFICPALEFTKKFSEWGNNAFFYYFEHRSSKLPWPEWMGVMHGYEIEFVFGLPLERRDNYTKAEEILSRSIVKRWANFAKYGNPNETQNNSTSWPVFKSTEQKYLTLNTESTRIMTKLRAQQCRFWTSFFPKVLEMTGNIDEAEWEWKAGFHRWNNYMMDWKNQFNDYTSKKESCVGL
[2]; 1 ng human acyl ghrelin, 10 µg human BChE
  acyl ghrelin hydrolysis rate as a function of time: linear hydrolysis rate
[2]; [4]
  amount of acyl ghrelin: decrease in the amount of acyl ghrelin
  amount of desacyl ghrelin: increase in the amount of the breakdown product, desacyl ghrelin

B2: A199S/F227A/S287G/A328W/Y332G (protein)
chain: EDDIIIATKNGKVRGMNLTVFGGTVTAFLGIPYAQPPLGRLRFKKPQSLTKWSDIWNATKYANSCCQNIDQSFPGFHGSEMWNPNTDLSEDCLYLNVWIPAPKPKNATVLIWIYGGGFQTGTSSLHVYDGKFLARVERVIVVSMNYRVGALGFLALPGNPEAPGNMGLFDQQLALQWVQKNIAAFGGNPKSVTLFGESSGAASVSLHLLSPGSHSLFTRAILQSGSANAPWAVTSLYEARNRTLNLAKLTGCSRENETEIIKCLRNKDPQEILLNEAFVVPYGTPLGVNFGPTVDGDFLTDMPDILLELGQFKKTQILVGVNKDEGTWFLVGGAPGFSKDNNSIITRKEFQEGLKIFFPGVSEFGKESILFHYTDWVDDQRPENYREALGDVVGDYNFICPALEFTKKFSEWGNNAFFYYFEHRSSKLPWPEWMGVMHGYEIEFVFGLPLERRDNYTKAEEILSRSIVKRWANFAKYGNPNETQNNSTSWPVFKSTEQKYLTLNTESTRIMTKLRAQQCRFWTSFFPKVLEMTGNIDEAEWEWKAGFHRWNNYMMDWKNQFNDYTSKKESCVGL
[3]
  ghrelin hydrolyzing activity in vitro: modest activity, comparable to that of wild type human BChE

B3: A199S/S227A/S287G/A328W/Y332G (protein)
chain: EEDFIITTKTGRVRGLSMPVLGGTVTAFLGIPYAQPPLGSLRFKKPQPLNKWPDIHNATQYANSCYQNIDQAFPGFQGSEMWNPNTNLSEDCLYLNVWIPVPKPKNATVMVWIYGGGFQTGTSSLPVYDGKFLARVERVIVVSMNYRVGALGFLAFPGNPDAPGNMGLFDQQLALQWVQRNIAAFGGNPKSITIFGESSGAASVSLHLLCPQSYPLFTRAILESGSANAPWAVKHPEEARNRTLTLAKFTGCSKENEMEMIKCLRSKDPQEILRNERFVLPSDSILGINFGPTVDGDFLTDMPHTLLQLGKVKKAQILVGVNKDEGTWFLVGGAPGFSKDNDSLITRKEFQEGLNMYFPGVSRLGKEAVLFYYVDWLGEQSPEVYRDALDDVIGDYNIICPALEFTKKFAELENNAFFYFFEHRSSKLPWPEWMGVMHGYEIEFVFGLPLGRRVNYTRAEEIFSRSIMKTWANFAKYGHPNGTQGNSTMWPVFTSTEQKYLTLNTEKSKIYSKLRAPQCQFWRLFFPKVLEMTGDIDETEQEWKAGFHRWSNYMMDWQNQFNDYTSKKESCTAL
[3]
  ghrelin hydrolyzing activity in vitro: enhanced activity
  ghrelin hydrolyzing activity relative to wild type mouse BChE: at least 20 fold
